Results: publication PMC8449659, “Depolymerization of biorefinery lignin by improved laccases of the white‐rot fungus Obba rivulosa” (Microbial Biotechnology, 2021)

B1: rOrLcc1 (variant rOrLcc1-D208N) (Obba rivulosa; D229N) (protein)
chain: AIGPVTDLVITDAFVTPDGPNLGREAVLAGGTFPGPLIQGNKGDNFQINVVNNLTNHTMLKTTSIHWHGLFQHGTNWADGPAFVNQCPIASGNSFLYNFNVPDQAGTFWYHSHLATQYCDGLRGPLVVYDPNDPYADLYDVDDESTVITLSDWYHAAASTLTFPTFDTTLINGLGRFAGTGGTDSDLAVITVEQGKRYRFRLAAISCNPNWVFSIDEHVMTIIEADAVNTLPLTVDAIQIFAAQRYSFVLNANQTVGNYWIRANPNNGNMGFANGINSAILRYSGATIEDPTTNSTIVNQLNEADLSPLTNPQAPGAPSQDPGAVDVAMNLAFSFNGTRLFINGVSFVPPSVPVLLQILSGSMTAQDLLPTGSVYTLPRNATVQISMPGNIIAGPHPFHLHGHTFSVIRSAGESDYNYDNPVQRDTVSIGGATDNVTIRFTTNNPGPWFLHCHIDWHLQAGFAIVFAEDTPDIASANPVPQAWSDLCPTYDALDPSDT
notes: codon-optimized cDNA in pPicZalphaA, secreted from Pichia pastoris X-33, purified in two steps
B2: rOrLcc2-L497V (variant rOrLcc2-D206N) (Obba rivulosa; D227N/L518V) (protein)
chain: AIGPVTDLTITDVSISPDGFERAAVLAGGTFPGPLITGNIGDNFQINVVNQLSNETMLESTTIHWHGLFQKGTAWADGPAFVSQCPIATGNSFLYDFSVPDQAGTFWYHSHLATQYCDGLRGPLVVYDPNDAYLSDYDVDDDTTVITLADWYHTAATLGPRFPTQADATLINGLGRYSGGPESNLTVITVESGKRYRFRLVSISCNENYVFSIDDHEMIVIEADGVETQPVTVDSIQIFAAQRYSFILNATEAVDNYWIRATPDLGTTGFTDGINSAILRYVGANDTDPTTASNTTNLLSELDLHPLTNAAAPGAASQDPGSVDVSMNLELGFDGTNFTINGATFVPPTVPVLLQILSGAQSATDLLPSGSVFTLPSNSTVQVTLAAGTVAGGPHPFHLHGHTFSVVRSAGSDTYNYDNPVQRDTVSIGADGDNVTIRFDTNNPGPWFLHCHIDWHLNAGFAIVFAEDTADIASANPVPDSWSDLCPTYDALPSDEV
notes: codon-optimized cDNA in pPicZalphaA, C-terminal L497V to remove possible ER-retention signal SDEL, secreted from Pichia pastoris X-33, purified in two steps

Substrate: COc1cccc(OC)c1O
Experiment: purified protein
Assay type: biochemical, Obba rivulosa
Settings: O2 co-substrate, error is 95% confidence interval
[1] = pH 3.5, citrate phosphate buffer, 0-31 mM substrate
[2] = pH 6.0, citrate phosphate buffer, 0-2 mM substrate

Row | Protein | Km [1] [µM] | Vmax [1] [µM/min] | kcat [1] [s⁻¹] | kcat/Km [1] [M⁻¹ s⁻¹] | Km [2] [µM] | Vmax [2] [µM/min] | kcat [2] [s⁻¹] | kcat/Km [2] [M⁻¹ s⁻¹]
1 | B1 | 3668 ± 270 | 216 | 44 | 12000 |  |  |  | 
2 | B2 |  |  |  |  | 38 ± 0 | 150 | 112 | 2.95e+06
